From the nanobody polyreactivity screen of Harvey et al. (2022)

test: yeast display, Sf9 membrane polyspecificity reagent, FACS + sequencing; frameworks hold sequencing errors
Procedure, shortened: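 Polyreactivity labels are assigned by the sorting gate from which each nanobody was recovered. The gates were low and high (top ~1%), set on anti-HA fluorescence for expression and streptavidin fluorescence for reagent binding. Before sorting, galactose-induced (36–48 hours) yeast display cells were stained for 1 hour at 4 °C with 10% biotinylated, detergent-solubilized Sf9 membrane reagent.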

Sequence	polyreactivity (PSR sort gate)
QVQLVESGGGLVQAGGSLRLSCAASGRIFRGYAMGWSRQAPGKERELVAAITSRGGSTYADSVKGRFTISRDNAKNTVYLQMNSLKPEDTAVYYCNAKEGSRYRKYDYWGQGTQVTVSS	low polyreactivity
QVQLVESGGGLVQAGGSLRLSCAASGRIFRGYAMGWYRPAPGKERELVAAIDTDTGITYYADSVKGRFTISRVNAKNTVNLQMNSLKPEDTAVYYCAAETYYAVSTGYYFDYWGQGTQVTVSS	high polyreactivity
QVQLVESGGGLVQAGGSLRLSCAASGRIFRGYAMGWYRQAPGKERELVAAISASGGSTYYADSVKGRFTISRDNAKNTVYLQMNSLKPEDTAVYYCATTIFYTYYGLYDYWGQGTQVTVSS	high polyreactivity
QVQLVESGGGLVQAGGSLRLSCAASGRIFRGYAMGWYRQAPGKERELVAAITSRGGSTYADSVKGRFTISRDNAKNTVYLQMNSLKPEDTAVYYCNAGYRAYSSKLVFRGYPRYDYWGQGTQVTVSS	low polyreactivity
QVQLVESGGGLVQAGGSLRLSCAASGRIFRGYTMGWYRQAPGKERELVAAISRSTGSTNYADSVKGRFTISRDNAKNTVYLQMNSLKPEDTAVYYCAATVSPSYDYWGQGTQVTVSS	high polyreactivity
QVQLVESGGGLVQAGGSLRLSCAASGRIFRINAMGWYRQAPGKEMELVASSSRRGGNTYYADSVKGRFTISRDNAKNTVYLQMNSLKPEDTAVYYCAADTNQERTFDYWGQGTQVTVSS	low polyreactivity
QVQLVESGGGLVQAGGSLRLSCAASGRIFRINAMGWYRQAPGKERELVASISRRGGNTYYADSVKGRFTISRDNAKNTVYLQMNSLKPEDTAVYYCAADTNLERTFDYWGQGTQVTVSS	low polyreactivity
QVQLVESGGGLVQAGGSLRLSCAASGRIFRINAMGWYRQAPGKERELVASISRRGGNTYYADSVKGRFTISRDNAKNTVYLQMNSLKPEDTAVYYCAADTNQERTFDYWGQGTQVTVSS	low polyreactivity
QVQLVESGGGLVQAGGSLRLSCAASGRIFRIYAMGWYRQAPGKERELVAAISWSGGRTYYADSVKGRFTISRDNAKNTVYLQMNSLIREDTAVYYCNADSYSRRGFEYDYWGQGTQVTVSS	high polyreactivity
QVQLVESGGGLVQAGGSLRLSCAASGRIFRIYAMGWYRQAPGKERELVARITYSGGSTYYADSVKGRFTISRDNAKNTVYLQMNSLKPEDTAVYYCNAYFIYEGGWYYKAQYDYWGQGTQVTVSS	low polyreactivity
QVQLVESGGGLVQAGGSLRLSCAASGRIFRIYTMGWYRQAPGKERELVAAITKSGGSTSYADSVKGRFTISRDNAKNTVYLQMNSLKPEDTAVYYCNAKGWSRPPGYDYWGQGTQLTVSS	high polyreactivity
QVQLVESGGGLVQAGGSLRLSCAASGRIFRKNAMGWYRQAPGKERELVAAITSSGNTYYADSVKGRFTISRDNAKNTVYFQMNSLKPEDTAVYYCAARLKWLNRYGYDYWGQGTQVTVSS	low polyreactivity
QVQLVESGGGLVQAGGSLRLSCAASGRIFRKYAMGWYRQAPGKERELVAAISGSGGSTYYADSVKGRFTISRDNAKNTVYLQMNSLKPEDTAVYYCAASAGRYSSTLGYYWGQGTQVTVSS	high polyreactivity
QVQLVESGGGLVQAGGSLRLSCAASGRIFRKYTKGWYRQAPGKERELVAAITGTGGSTYYADSVKGRFTISRDNAKNTVYLQMNSLKPEDTAVYYCAADYSARYGFWGLGTQVTVSS	high polyreactivity
QVQLVESGGGLVQAGGSLRLSCAASGRIFRKYTMGWYRQAPGKERELVAAISRNGGDTYYADSVKGRFTISRDNAKNTVYLQMHSLKPEDPAVYYCNARTPPDSTHFAYWGQGTQVTVSS	low polyreactivity
QVQLVESGGGLVQAGGSLRLSCAASGRIFRLYAMGWYRQAPGKERELVATITDVGSTYYADSVKGRFTISRDNAKNTVYLQMNSLKPEDTAVYYCAAESYYTSYWKYYYWGQGTQVTVSS	high polyreactivity
QVQLVESGGGLVQAGGSLRLSCAASGRIFRPYAMGWYRQAPGKERELVAGITSSGGSTYYADSVEGRFTISRDNAKNTVYLQMNSLKPEDTAVYYCAAVHGLFRPLHYYWGQGTQVTVSS	low polyreactivity
QVQLVESGGGLVQAGGSLRLSCAASGRIFRPYAMGWYRQAPGKERELVAGITSSGGSTYYADSVKGRYTISRDNAKNTVYLQMNSLKPEDTAVYYCAAVHGLFRPLHYYWGQGTQVTVSS	low polyreactivity
QVQLVESGGGLVQAGGSLRLSCAASGRIFRPYAMGWYRQAPGKERELVASINYSGGSTYADSVKGRFTISRDNAKNTVYLQMNSLKPEDTAVYYCNVYRDGFRYTAWYTGQTFDYWGQGTQVTVSS	low polyreactivity
QVQLVESGGGLVQAGGSLRLSCAASGRIFRQNAMGWYRQAPGKERELVAAISRSGGSTYYADSVKGRFTISRDNAKNTVYLQMNSLKPEDTAVYYCAADVHTPALYTYAAGDYWGQGTQVTVSS	low polyreactivity
QVQLVESGGGLVQAGGSLRLSCAASGRIFRRNVMGWYRQAPGKEREMLAAIRGTGSTTYADSVKGRFTISRDNEKNTVYLQMNSLKPEDTAVYYCAAVQQGNHGFRYYYWGQGTQVTVSS	high polyreactivity

Sequence	polyreactivity (PSR sort gate)
QVQLVESGGGLVQAGGSLRLSCAASGRIFRRYALGWYRQAPGKERELGAAITRSGGSTYYADSVKGRFTISRDNAKNTVYLQMNSLNPEDTAVYYCYAPSSLGTDYDYWGQGTQVTVSS	high polyreactivity
QVQLVESGGGLVQAGGSLRLSCAASGRIFRRYAMGWYRQAPGKEREFVAAISYGGGSTYYADSVKGRFTISRDNAKYTVSLQMNSLTPEDTAVYYCNADVPKSLLLYYPWGYGYWGQGTQVTVSS	low polyreactivity
QVQLVESGGGLVQAGGSLRLSCAASGRIFRRYAMGWYRQAPGKERELVAAISSGGSTYYADSVKGRFTISRDNEKNTVYLQLNSLKPEDSAVYYCNAKVGAYLNYGYWGQGTQVTVSS	low polyreactivity
QVQLVESGGGLVQAGGSLRLSCAASGRIFRRYAMGWYRQAPGKERELVAAISTSGGSTYYADSVKGRFTISRDNAKNTVYLQMNSLKPEDTAVYYCNVYKPPTRGGVLQYGYWGQGTQVTVSS	low polyreactivity
QVQLVESGGGLVQAGGSLRLSCAASGRIFRRYAMGWYRQAPGKERELVAVISRGGSTHYADSVKGRFTISRDNAKNTVYLQMNSLKPEDTAVYYCNAVVSVYTKDLDYWGQGTQVTVSS	high polyreactivity
QVQLVESGGGLVQAGGSLRLSCAASGRIFRRYAMGWYRQAPGTETELVAAISSGASTYYADSVKGRFTISRDNAKNTVYLQMNSLKPEDTAVYYCAVDRPYYYGYRMDYWGQGTQVTVSS	low polyreactivity
QVQLVESGGGLVQAGGSLRLSCAASGRIFRSNAMGWYRQAPGKERELVAAITWSGGSTYYADSVKGRFTISRDNAKNTVYLQMNSLKPEDTAVYYCAADGYTAYLPYYWFDYWGQGTQVTVSS	high polyreactivity
QVQLVESGGGLVQAGGSLRLSCAASGRIFRSNSMGWYRQAPGKERELVATITRSGGSTYYADSGKGRFSISRDNAKNTVYVQKNSLKPEDTAVYYCNAVFGSAYRAQRIMGYWGQGTQVTVSS	low polyreactivity
QVQLVESGGGLVQAGGSLRLSCAASGRIFRTYAMGWYRQAPGKERELVAAINSVDRTYYADSVKGRFTISRDNAKNTVYLQMNSLKPEDTAVYYCAATIAPTPGYIIYDYWGQGTQVTVSS	high polyreactivity
QVQLVESGGGLVQAGGSLRLSCAASGRIFRVYAMGWYRQAPGKERELVAAISGRGGSTTYADSVKGRFTISRDNAKNTVYLLMNSLKPEDTAVYYCAAGYRVDYWGQGTQVTVSS	low polyreactivity
QVQLVESGGGLVQAGGSLRLSCAASGRIFRVYAMGWYRQAPGKERELVAAISSGGSTNYADSVKGRFTISRDNANNTVYLQMNSLKPEDTAVYYCAATVRGVGYRYYYWGQGTQVTVSS	high polyreactivity
QVQLVESGGGLVQAGGSLRLSCAASGRIFRVYTMGWYRQAPGKERQLVATISYRGGSTYYADSVKGRFTISRDNAKNTVFLQMNSLTPDDNAVYNCAARLPADPGKTPGTLRTLDYWGQGTQVTVSS	high polyreactivity
QVQLVESGGGLVQAGGSLRLSCAASGRIFRWNAMGWYRQAPGKERELVASITGGDITNYADSVKGRFTISRDNAKNTVYLQMNSLKPEDTAVYYCAARGYGRGRPVASYGYDYWGQGTQVTVSS	low polyreactivity
QVQLVESGGGLVQAGGSLRLSCAASGRIFRWYAMGWYRQAPGKERELVAAISRSGTSTYYADSVKGRFTISRDNAKNTVYLQMNSLKPEDTAVYYCAADAVIFGMDYWGQGTQVTVSS	low polyreactivity
QVQLVESGGGLVQAGGSLRLSCAASGRIFRWYAMGWYRQAPGKERELVATISSTGGSTYYADSVKGRFTISRDNAKNTVYLQMNSLKPEDTAVYYCNALSFITITVYSEGDYWGQGTQVTVSS	low polyreactivity
QVQLVESGGGLVQAGGSLRLSCAASGRIFRYNAMGWYRQAPGKERELVAAISWTVGRTYYADSVKGRFTISRDNAKNTVYLQMNSLKPEDTAVYYCATYFRVWYRSYDYWGQGTQVTVSS	high polyreactivity
QVQLVESGGGLVQAGGSLRLSCAASGRIFRYNAMGWYRQAPGKERELVAAITRSGGSTYYADSVKGRFTISRDNAKNTVYLQMNSLKPEDTAVYYCAKVQNGQWSTSRVPGDYQYNYWGQGTQVTVSS	high polyreactivity
QVQLVESGGGLVQAGGSLRLSCAASGRIFRYNAMGWYRQAPGKERELVAAITWRGGSTYYADSVKGRFTISRDNAKNTVYLQMNSLKPEDTAVYYCNKVYSLTFEYDYWGQGTQVTVSS	high polyreactivity
QVQLVESGGGLVQAGGSLRLSCAASGRIFRYNAMVWNIQAPGKERELDAAISYRGTRTYYADSVKGRFTISRDNAKNTVYLQMNSLKPEDTAVYYCAKDSGYYTADDYDYWGQVTQVTVSS	low polyreactivity
QVQLVESGGGLVQAGGSLRLSCAASGRIFRYNTIGWYRQAPGKERELVADITSSDSSTNYADSVKGRFTISRDTAKNTVYLQMNSLKPEDTAVYYCNAVIYFKFDWGQGTQVTVSS	low polyreactivity
